Yield of n-pentadecane by ADO 1593 with Fd (spinach) + FNR (PCC7942) + NADPH and Yield of n-pentadecane by ADO 1593 with Fd (spinach) + FNR (spinach) + NADPH data for one substance are collected here from paper PMC3691600, “Conversion of fatty aldehydes into alk (a/e)nes by in vitro reconstituted cyanobacterial aldehyde-deformylating oxygenase with the cognate electron transfer system” (Biotechnology for Biofuels, 2013).

In the assay the target is Aldehyde-deformylating oxygenase (Synpcc7942_1593) from Synechococcus elongatus PCC7942 (Synechococcus elongatus PCC7942) (UniProt Q54764).
Chain of Aldehyde-deformylating oxygenase (Synpcc7942_1593) from Synechococcus elongatus PCC7942 (Synechococcus elongatus PCC7942) (Q54764 whole entry): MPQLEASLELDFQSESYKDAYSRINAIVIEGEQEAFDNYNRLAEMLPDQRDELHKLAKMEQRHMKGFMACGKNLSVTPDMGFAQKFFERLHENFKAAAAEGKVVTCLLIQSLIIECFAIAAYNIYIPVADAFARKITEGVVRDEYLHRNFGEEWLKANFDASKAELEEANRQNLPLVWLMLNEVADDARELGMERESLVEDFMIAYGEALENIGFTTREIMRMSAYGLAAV

Chain of Spinach ferredoxin (P00221 51-147): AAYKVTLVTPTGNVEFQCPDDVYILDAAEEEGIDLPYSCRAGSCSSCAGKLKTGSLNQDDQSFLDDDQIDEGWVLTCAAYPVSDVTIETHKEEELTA

“Spinach ferredoxin (from UniProt P00221 51-147) (natural protein)”: the Yield of n-pentadecane by ADO 1593 with Fd (spinach) + FNR (PCC7942) + NADPH was found to be 13.9 µM and the Yield of n-pentadecane by ADO 1593 with Fd (spinach) + FNR (spinach) + NADPH was found to be 15.7 µM.
